Measured values taken from patent publication US20230365662A1.
Numbering of substitutions follows the chain as printed. Names and notes keep the numbering of the source. Values joined by “and” are separate entries in the source; they are usually repeats but may differ in a detail not shown here. Identical values can stand only once.

B1: KB001 (antibody, V domains shown)
VH: EVQLKQSGPGLVAPSQSLSITCTVSGFSLSIYSVHWVRQPPGKGLEWLGMIWGGGSSDYNSALKSRLSISKDNSKSQVFLKMNSLQTDDTAMYYCARNGNFYAMDYWGQGTSVTVSS
VL: QIVLTQSPAIMSASLGERVTMTCTASSSVSSSFLHWYQQKPGSSPQLWIYSTSNLASGVPARFSGSGSGTSYSLTISSMEAEDAATYYCHQYHHSPYIYTFGGGTKLEIKR
B2: parental mouse Fab FASEBA sample (Fab, V domains shown)
VH: B1 VH
VL: B1 VL
B3: KB001 parental mouse Fab VH variant Y106I (Fab, V domains shown)
VH: B1 VH with Y106I
VL: QIVLTQSPAIMSASLGERVTMTCTASSSVSSSFLHWYQQKPGSSPQLWIYSTSNLASGVPARFSGSGSGTSYSLTISSMEAEDAATYYCHQYHHSPYIYTFGGGTKLEIK
B4: KB001 parental mouse Fab VH variant M104L (Fab, V domains shown)
VH: B1 VH with M104L
VL: B3 VL
B5: KB001 parental mouse Fab VH variant A103M (Fab, V domains shown)
VH: B1 VH with A103M
VL: B3 VL
B6: KB001 parental mouse Fab VH variant M104V (Fab, V domains shown)
VH: B1 VH with M104V
VL: B3 VL
B7: KB001 parental mouse Fab VH variant Y106D (Fab, V domains shown)
VH: B1 VH with Y106D
VL: B3 VL
B8: KB001 parental mouse Fab VH variant A103L (Fab, V domains shown)
VH: B1 VH with A103L
VL: B3 VL
B9: KB001 parental mouse Fab VH variant A103C (Fab, V domains shown)
VH: B1 VH with A103C
VL: B3 VL
B10: KB001 parental mouse Fab VH variant Y106H (Fab, V domains shown)
VH: B1 VH with Y106H
VL: B3 VL
B11: KB001 parental mouse Fab VH variant Y106W (Fab, V domains shown)
VH: B1 VH with Y106W
VL: B3 VL
B12: KB001 parental mouse Fab VH variant Y106K (Fab, V domains shown)
VH: B1 VH with Y106K
VL: B3 VL
B13: KB001 parental mouse Fab (WT) (Fab, V domains shown)
VH: B1 VH
VL: B3 VL
B14: KB001 parental mouse Fab VH variant A103K (Fab, V domains shown)
VH: B1 VH with A103K
VL: B3 VL
B15: KB001 parental mouse Fab VH variant Y106Q (Fab, V domains shown)
VH: B1 VH with Y106Q
VL: B3 VL
B16: KB001 parental mouse Fab VH variant A103I (Fab, V domains shown)
VH: B1 VH with A103I
VL: B3 VL

What was measured:
[1] = target: HRgpA-6H (Porphyromonas gingivalis) (UniProt P28784); test: ELISA on coated HRgpA-6H (coating concentration not stated); secondary Mouse Anti-Human IgG, F(ab')2
Sequence of UniProt P28784 (P28784 228-991 limits assumed): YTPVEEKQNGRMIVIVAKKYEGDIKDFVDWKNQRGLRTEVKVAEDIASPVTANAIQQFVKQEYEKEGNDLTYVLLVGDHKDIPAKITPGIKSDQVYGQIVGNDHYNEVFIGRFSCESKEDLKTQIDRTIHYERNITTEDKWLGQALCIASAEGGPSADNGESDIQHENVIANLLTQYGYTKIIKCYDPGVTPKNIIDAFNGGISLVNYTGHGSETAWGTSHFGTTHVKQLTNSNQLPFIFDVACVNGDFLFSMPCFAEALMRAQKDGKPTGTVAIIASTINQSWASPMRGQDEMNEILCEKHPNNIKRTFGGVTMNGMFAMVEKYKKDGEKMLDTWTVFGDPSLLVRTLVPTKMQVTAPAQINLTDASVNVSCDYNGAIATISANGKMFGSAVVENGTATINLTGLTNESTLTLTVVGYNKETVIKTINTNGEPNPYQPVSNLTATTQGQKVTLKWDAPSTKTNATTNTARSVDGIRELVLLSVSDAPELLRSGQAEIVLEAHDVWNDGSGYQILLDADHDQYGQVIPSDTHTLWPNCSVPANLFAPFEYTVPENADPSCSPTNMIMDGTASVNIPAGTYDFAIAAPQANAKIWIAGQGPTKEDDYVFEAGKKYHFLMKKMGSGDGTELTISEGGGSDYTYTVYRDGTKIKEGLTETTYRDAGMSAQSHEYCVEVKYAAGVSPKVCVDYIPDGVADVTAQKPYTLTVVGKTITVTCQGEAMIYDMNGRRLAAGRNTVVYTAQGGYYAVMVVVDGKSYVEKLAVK

[2] = target: HRgpA-6H (Porphyromonas gingivalis) (UniProt P28784); test: ELISA on coated HRgpA-6H (coating concentration not stated); secondary Goat Anti-Human IgG, F(ab')2
[3] = target: HRgpA-6H (Porphyromonas gingivalis) (UniProt P28784); test: ELISA on coated HRgpA-6H (coating concentration not stated); secondary Anti-BSA (HRP)
[4] = target: HRgpA-6H (Porphyromonas gingivalis) (UniProt P28784); test: ELISA on coated HRgpA-6H (coating concentration not stated); secondary Goat Anti-Human IgG (H+L)
[5] = target: Porphyromonas gingivalis strain W83 whole cells (surface gingipain/adhesin/hemagglutinin complex); test: scanning electron microscopy, gold-labelled KB001
[6] = target: Porphyromonas gingivalis strain W83 whole cells (surface gingipain/adhesin/hemagglutinin complex)
[7] = target: P. gingivalis laboratory strains, serotypes and human clinical isolates (whole cells); test: immunogold SEM
[8] = target: HRgpA-6H (Porphyromonas gingivalis) (UniProt P28784); test: ELISA, HRgpA-6H coated 2 ug/ml; mouse Fab FASEBA supernatant; Goat Anti-MOUSE IgG (Fab specific) [HRP]
[9] = target: HRgpA-6H (Porphyromonas gingivalis) (UniProt P28784); test: ELISA, HRgpA-6H coated 1 ug/ml; mouse Fab FASEBA supernatant; Goat Anti-MOUSE IgG (Fab specific) [HRP]
[10] = target: HRgpA-6H (Porphyromonas gingivalis) (UniProt P28784); test: ELISA, HRgpA-6H coated 0.0625 ug/ml; mouse Fab FASEBA supernatant; Goat Anti-MOUSE IgG (Fab specific) [HRP]
[11] = target: HRgpA-6H (Porphyromonas gingivalis) (UniProt P28784); test: ELISA, HRgpA-6H coated 0.25 ug/ml; mouse Fab FASEBA supernatant; Goat Anti-MOUSE IgG (Fab specific) [HRP]
[12] = target: HRgpA-6H (Porphyromonas gingivalis) (UniProt P28784); test: ELISA, HRgpA-6H coated 0.125 ug/ml; mouse Fab FASEBA supernatant; Goat Anti-MOUSE IgG (Fab specific) [HRP]
[13] = target: HRgpA-6H (Porphyromonas gingivalis) (UniProt P28784); test: ELISA, HRgpA-6H coated 0.5 ug/ml; mouse Fab FASEBA supernatant; Goat Anti-MOUSE IgG (Fab specific) [HRP]
[14] = target: HRgpA-6H (Porphyromonas gingivalis) (UniProt P28784); test: ELISA, Fab FASEBA supernatant on coated HRgpA-6H (0.0625 ug/ml)

Molecule	OD450nm [14]	Ratio OD(Variant)/OD(WT) [14]	other results
non-related FASEBA supernatant (NC) (Fab)			OD450 [1]: 0.552 and 0.288; OD450 [2]: 0.672; OD450 [3]: 1.09; OD450 [4]: 1.15 and 0.736
B1			IgG molecules bound per bacteria (molecules per bacterium) [5]: 60 and 80; Kd [6]: 0.0114 µM; Response [6]: 0.216 and 0.186 and 0.297; koff [6]: 0.000219 s⁻¹; kon [6]: 19200 M⁻¹ s⁻¹; average labeled density [7]: 50 µm^-2
B2			OD450 [8]: 2.04 and 1.98; OD450 [9]: 1.94 and 2.02; OD450 [10]: 0.755 and 0.687; OD450 [11]: 1.58 and 1.51; OD450 [12]: 1.17 and 1.13; OD450 [13]: 1.76 and 1.82
B3	0.73 and 0.728 and 0.764	0.949 and 0.947 and 0.993	
B4	0.786	0.904	
B5	0.811	0.941	
B6	0.654	0.85	
B7	0.675	0.878	
B8	0.783	0.908	
B9	0.77	0.893	
B10	0.722	0.939	
B11	0.733 and 0.748	0.953 and 0.973	
B12	0.767	0.997	
B13	0.831	0.956	
B14	0.723	0.839	
B15	0.768	0.999	
B16	0.695 and 0.693	0.806 and 0.804	
